Laboratory results as given in US20240117061A1 (WUHAN YZY BIOPHARMA, published 2024).
Numbering of substitutions follows the chain as printed.

Tests used:
[1] = target: T1, recombinant human BCMA-his fusion protein (ACRO Biosystem, Cat. No. BCA-H522y) (human, UniProt Q02223 1-54); assay: competitive ELISA, coated huBCMA-his, competitor APRIL-biotin
T1 construct: extracellular domain; Bought protein; also called huBCMA-his; hu BCMA-his; not shown: His tag
T1 sequence (looked up): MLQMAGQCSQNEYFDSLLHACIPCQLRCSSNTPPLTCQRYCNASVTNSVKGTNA

[2] = target: T1, recombinant human BCMA-his fusion …; assay: as above; remark: listed apart in the source
Protocol: The 96-well microplate was treated with 100 μL of 0.5 μg/mL huBCMA-his in PBS and incubated overnight at 4° C. The plate was then washed thrice with PBS washing buffer containing 0.1% of Tween-20 and blocked with 300 μL of PBS containing 1% of BSA for 2 h. 100 μL of each BCMA antibody was added to the plate. […] The plate was incubated at 37° C. for 1 h, and unbound secondary antibody was washed with PBS washing buffer containing 0.1% of Tween-20. The TMB chromogenic solution was added at 100 μL/well. After a 5-min reaction at room temperature, 2 M H₂SO₄ was added at 100 μL/well to terminate the reaction. The microplate was placed on a microplate reader (Molecular Devices, SPECTRA Max plus 384) and the absorbance OD450 value was read at 450 nm wavelength.

[3] = target: T1, recombinant human BCMA-his fusion …; assay: SPR (Biacore T200), anti-His capture on CM5, 1:1 fit
Protocol: (§1) In this example, the antigen-antibody binding kinetics and affinity were determined by the BIACORE method.
(§2) Procedures: The anti-histidine antibody (GE, His capture Kit, Cat. No. 28995056) was conjugated to the Sereis S Sensor Chip CMS to capture the test articles, thus acquiring the binding kinetic and affinity data of the antigen, as an analyte, to the test articles. The initial concentration for detecting the binding of the antigen and the test articles was 10 nM. […] The Start up flushing process (1×HBS-EP+buffer) was performed at least thrice before loading to equilibrate the system. The association and dissociation tendencies between the antigen and the test articles were detected. When the dissociation was completed, a regeneration reagent was loaded for regeneration before the detection of the next concentration was performed. After the detection was finished, the data were fitted by using a 1:1 Binding fitting mode in data analysis software (Biacore T200 Evaluation Software).

[4] = target: T2, recombinant cynomolgus monkey cynoBCMA-his (ACRO Biosystem, Cat. No. BCA-052H7) (cynomolgus monkey, UniProt A0A2K5UD97 1-53); assay: as above
T2 construct: extracellular domain; Bought protein; also called cynomolgus/rhesus macaque BCMA/TNFRSF17 protein; not shown: His tag
Protocol: as §1, §2

[5] = target: T1, recombinant human BCMA-his fusion …; assay: competitive ELISA, coated huBCMA-his, competitor 83A10-biotin
[6] = target: T1, recombinant human BCMA-his fusion …; assay: ELISA, coated antigen
Protocol: (§3) Procedures: huBCMA-his and cynoBCMA-his antigens were prepared into 0.5 μg/mL coating solutions with PBS (pH 7.4). The coating solutions were added to a microplate at 100 μL/well and incubated at 4° C. overnight. The residual coating solution was discarded before 3% BSA was added at 300 μL/well, and the plate was blocked for 3 h at room temperature. The microplate was washed once with PB ST at 300 The stock humanized monoclonal antibody solutions were serially 3-fold diluted to the 11th concentration. The dilutions were added to the microplate at 100 μL/well. After a 1-h incubation at room temperature, the microplate was washed thrice with PBST at 300 The HRP-conjugated 6*His, His-Tag antibody was 25,000-fold diluted with 1% BSA-PBST and added at 100 After another 1-h incubation at room temperature, the microplate was washed thrice with PB ST at 300 μL/well and dried. The TMB chromogenic solution was added at 100 μL. After a 5-min reaction at room temperature, 2 M H2504 was added at 100 μL/well to terminate the reaction. The microplate was placed on a microplate reader (Molecular Devices, SPECTRA Max plus 384) and the absorbance OD450 value was read at 450 nm wavelength.

[7] = target: T2, recombinant cynomolgus monkey …; assay: ELISA, coated antigen
Protocol: as §3

[8] = target: T3, cynomolgus monkey BCMA on HEK293 cynoBCMA cells (cynomolgus monkey, UniProt A0A2K5UD97 1-183); assay: flow cytometry on HEK293 cynoBCMA cells
T3 construct: whole, on cells
Protocol: (§4) Procedures: Preparation of cell suspensions: The cells were resuspended in PBS, and the cell density was adjusted to 2×10⁵ cells/well. Mouse antibodies were added to a 96-well plate at […] and serially 3-fold diluted from 3000 nM. The plate was incubated for 1 h at 4° C. 150 μL of precooled PBS containing 1% of FBS was added into the 96-well plate after the co-incubation with the primary antibody was finished. The mixtures were centrifuged at 300×g for 5 min and the supernatants were discarded. The above procedures were repeated once. The fluorescent secondary antibody PE […] (Biolegend, 409304) was added at 80 μL/well. The plate was incubated at 4° C. for 30 min. 150 μL of precooled PBS containing 1% of FBS was added into the 96-well plate after the co-incubation with the secondary antibody was finished. The mixtures were uniformly mixed with a pipette. The 96-well plate was centrifuged at 300×g for 5 min in a plate centrifuge and the supernatants were removed. The above procedures were repeated once. The cells were resuspended in 100 μL of PBS containing 1% of FBS and detected on a flow cytometry (BD Accuri™ C6).

[9] = target: T4, human BCMA on cells (NCI-H929, U266B1, HEK293 huBCMA) (human, UniProt Q02223 1-184); assay: flow cytometry on NCI-H929 cells
T4 construct: whole, on cells; also called cell surface BCMA antigen
T4 sequence (looked up): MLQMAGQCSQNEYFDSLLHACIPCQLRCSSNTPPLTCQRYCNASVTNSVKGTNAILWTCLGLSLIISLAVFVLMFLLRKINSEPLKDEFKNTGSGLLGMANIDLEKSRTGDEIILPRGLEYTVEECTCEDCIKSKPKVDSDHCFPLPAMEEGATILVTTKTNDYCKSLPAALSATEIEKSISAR
Protocol: as §4

[10] = target: T2, recombinant cynomolgus monkey …; assay: competitive ELISA, coated cynoBCMA-his, competitor 83A10-biotin
[11] = target: T1, recombinant human BCMA-his fusion …; assay: competitive ELISA, coated huBCMA-his, competitor 83A10-biotin, antibody at 7 µg/mL
[12] = target: T4, human BCMA on cells (NCI-H929, U266B1, …); assay: flow cytometry on U266B1 cells
Protocol: (§5) The affinities of the 3 mouse antibodies for cell surface BCMA antigen were assessed using FACS. Materials: cell lines NCI-H929, U266B1, HEK293 cynoBCMA and HEK293; PBS buffer; FBS (fetal bovine serum; Gibco, 10099141); PE goat anti-mouse IgG Fc (Biolegend, 405307). Procedures: The cells were resuspended in PBS to prepare cell suspensions containing 200,000 cells. Mouse BCMA antibodies were added to a 96-well plate at 50 μL/well and serially 3-fold diluted from 3000 nM. The plate was incubated for 1 h at 4° C. 150 μL of precooled PBS containing 1% of FBS was added into the 96-well plate after the co-incubation with the primary antibody was finished. The mixtures were centrifuged at 300×g for 5 min and the supernatants were discarded. The above procedures were repeated once. The fluorescent secondary antibody PE goat anti-mouse IgG Fc was added at 80 μL/well. The plate was incubated at 4° C. for 30 min. 150 μL of precooled PBS containing 1% of FBS was added into the 96-well plate after the co-incubation with the secondary antibody was finished. The mixtures were uniformly mixed with a pipette. The 96-well plate was centrifuged at 300×g for 5 min in a plate centrifuge and the supernatants were discarded. The above procedures were repeated once. The cells were resuspended in 100 μL of PBS containing 1% of FBS and detected on a flow cytometry (BD Accuri™ C6).

[13] = target: T4, human BCMA on cells (NCI-H929, U266B1, …); assay: flow cytometry on NCI-H929 cells; remark: listed apart in the source
Protocol: as §5

[14] = target: T5, recombinant human BCMA-huFc fusion protein (human); assay: indirect ELISA, coated antigen
T5 construct: also called huBCMA-huFc
Protocol: Procedures: Human, mouse and monkey BCMA antigens were prepared into 0.5 μg/mL coating solutions with PBS buffer. The coating solutions were added to a microplate at 100 μL/well and incubated at 4° C. overnight. The residual coating solution was discarded before 3% BSA was added at 300 μL/well, and the plate was blocked for 3 h at room temperature. The microplate was washed once with PBST (PBS containing 0.1% of TWEEN 20) at 300 μL/well. The three mouse BCMA antibodies were serially 3-fold diluted from 10 μg/mL to the 7th concentration. The dilutions were added to the microplate at 100 μL/well. After a 1-h incubation at room temperature, the microplate was washed thrice with PBST at 300 μL/well. The HRP goat anti-mouse IgG antibody was 25,000-fold diluted with 1% BSA-PBST and added at 100 μL/well. After another 1-h incubation at room temperature, the microplate was washed thrice with PBST at 300 μL/well and dried. The TMB chromogenic solution was added at 100 μL/well. After a 5-min reaction at room temperature, 2 M H₂SO₄ was added at 100 μL/well to terminate the reaction. The microplate was placed on a microplate reader (Molecular Devices, SPECTRA Max plus 384) and the absorbance OD450 value was read at 450 nm wavelength.

T2 sequence (A0A2K5UD97 entry or part of it): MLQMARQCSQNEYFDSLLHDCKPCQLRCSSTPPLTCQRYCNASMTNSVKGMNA
T3 sequence (A0A2K5UD97 entry or part of it): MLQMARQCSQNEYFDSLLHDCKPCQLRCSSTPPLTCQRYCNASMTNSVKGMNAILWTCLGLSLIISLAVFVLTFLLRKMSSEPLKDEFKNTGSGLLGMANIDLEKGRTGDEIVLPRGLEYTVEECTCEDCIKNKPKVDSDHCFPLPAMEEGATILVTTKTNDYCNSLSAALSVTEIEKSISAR

B1: soluble human APRIL (ACRO, Cat. No. APL-H5244) (ligand, UniProt O75888 115-250, looked up)
chain: HSVLHLVPINATSKDDSDVTEVMWQPALRRGRGLQAQGYGVRIQDAGVYLLYSQVLFQDVTFTMGQVVSREGQGRQETLFRCIRSMPSHPDRAYNSCYSAGVFHLHQGDILSVIIPRARAKLNLSPHGTFLGFVKL
notes: also called APRIL ligand; APRIL-biotin
IC50 [1]: 3.7 µg/mL
IC50 [2]: 0.0247 µg/mL

B2: humanized antibody hu-mAb3 (VH3+VL3) (antibody, V domains shown)
VH: QVQLVQSGAEVKKPGASVKVSCKASGYTITDYNMDWVRQAPGQGLEWIGNINPHNGGSIYNQKFQGRATLTVDKSTSTAYMELSSLRSEDTAVYYCARGDATLVLDYWGQGTTVTVSS
VL: DIQLTQSPSSLSASVGDRATITCRASKSVSTSGLSYMHWYQQKPGKAPKVLIYLASNLESGVPARFSGSGSGTDFTLTISSVQPEDFATYYCQHSRELPPTFGQGTKLELK
notes: human IgG1/kappa named only as preferred
Kd [3]: 0.399 nM
koff [3]: 0.00235 s⁻¹
kon [3]: 5.9e+06 M⁻¹ s⁻¹
Kd [4]: 0.256 nM
koff [4]: 0.000773 s⁻¹
kon [4]: 3.02e+06 M⁻¹ s⁻¹
IC50 [5]: 1.37 µg/mL
IC50 [1]: 0.918 µg/mL
EC50 [6]: 0.0226 nM
EC50 [7]: 0.0303 nM
EC50 [8]: 3.76 nM
EC50 [9]: 8.07 nM
IC50 [10]: 1.32 µg/mL

B3: humanized antibody hu-mAb2 (VH2+VL2) (antibody, V domains shown)
VH: QVQLVQSGAEVKKPGSSVKVSCKVSGYTFTDHTIHWMKQAPGQGLEWIGYIYPRNGNTKYNEKFKGKATLTADKSTSTAYMELSSLRSEDTAVYFCARYDYDGYFDVWGQGTLVTVSS
VL: DVVMTQTPLSLSVTPGQPASISCRSSQSHVHSDGHTYLHWYLQKPGQSPELLIYKVSNRFSGVPDRFSGSGSGTDFTLKISRVEAEDVGVYFCSQNTHFPWTFGGGTKVEIK
notes: as for B2
Kd [3]: 1.15 nM
koff [3]: 0.0258 s⁻¹
kon [3]: 2.24e+07 M⁻¹ s⁻¹
IC50 [5]: 8.35 µg/mL
IC50 [1]: 2.76 µg/mL
competition [11]: 30%
EC50 [6]: 0.00271 nM
EC50 [9]: 0.83 nM

B4: mouse monoclonal antibody 202E11H10E3 (antibody, V domains shown)
VH: QVQLQQSDAELVKPGTSVKISCKVSGYTFTDHTIHWMKQRPEQGLEWIGYIYPRNGNTKYNEKFKGKATLTADKSSSTAYMHLNSLTSEDSAVYFCARYDYDGYFDVWGTGTTVTVSS
VL: B3 VL with S12P, T14S, P15L, Q17D, P18Q, V88L, V109L
notes: detected with anti-mouse IgG; also called Clone 202E11H10E3; BCMA-HC2/BCMA-LC2
EC50 [12]: 1 nM
EC50 [13]: 1.1 nM
EC50 [14]: 0.0764 nM

B5: mouse monoclonal antibody 18F6G3H9 (antibody, V domains shown)
VH: EVQLQQSGPELVKPGTSVEMSCKASGYTFTDYNIHWVRQRHGESLEWLGYINPNNGVTNFNQKFKGKATLTVNKSSSTAYMELRSLTSDDSAVYYCSSGLFDGYPFPYWGQGTLVTVSA
VL: DIVLTQSPASLVVSLGQRATISCRASKSVSTSGYNYIHWYQQKPGQPPKLLIFLASNLKSGVPARFSGGGSGTDFTLNIHPVEEDDAATYFCQHNRELPYTFGGGTKVEIK
notes: detected with anti-mouse IgG; also called Clone 18F6G3H9; BCMA-HC1/BCMA-LC1
EC50 [12]: 1.6 nM
EC50 [13]: 3.1 nM
EC50 [14]: 0.0705 nM
